Paper PMC4445638 (2015)

T1: DLL4 N-EGF2 (Rattus norvegicus, UniProt D3ZHH1)
T1 chain: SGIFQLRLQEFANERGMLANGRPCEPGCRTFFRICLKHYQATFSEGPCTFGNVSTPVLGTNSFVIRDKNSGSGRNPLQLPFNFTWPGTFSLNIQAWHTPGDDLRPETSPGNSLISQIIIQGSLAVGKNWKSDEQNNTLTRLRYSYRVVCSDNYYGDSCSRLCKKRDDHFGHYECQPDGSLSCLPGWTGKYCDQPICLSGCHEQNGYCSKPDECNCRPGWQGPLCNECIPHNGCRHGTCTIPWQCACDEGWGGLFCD


Molecular target: T1, DLL4 N-EGF2
Test: SPR

Row | Binder | Kd [µM]
1 | Notch1 411-530 (protein) QDVDECALGANPCEHAGKCLNTLGSFECQCLQGYTGPRCEIDVNECISNPCQNDATCLDQIGEFQCICMPGYEGVYCEINTDECASSPCLHNGRCVDKINEFLCQCPKGFSGHLCQYDVD | 7.5
2 | MPRLLAPLLCLTLL [Notch1 EGF1-14] | 12.7
3 | CLTLL [Notch1 EGF10-14] | 8.6
